Measured values from patent US20180094059A1 (UNIVERSITAT STUTTGART, published 2018).
One block for each binder: values may come before it.

Key:
[1] = target: T1, EGFR on EGFR-positive tumor cell lines (UniProt P00533 25-1210, limits assumed); assay: flow cytometry, HCT116 cells
T1 construct: whole, on cells; The cell line is named under assay or readout; also called EGFR+ cell lines

EGFR-Fc = target: T2, EGFR-Fc (UniProt P00533 25-645); assay: ELISA, EGFR-Fc
T2 construct: also called purified EGFR-Fc; not shown: Fc part

[2] = target: T1, EGFR on EGFR-positive tumor cell lines; assay: flow cytometry, Colo205 cells
[3] = target: T1, EGFR on EGFR-positive tumor cell lines; assay: flow cytometry, HCT116 cells; remark: listed apart in the source
[4] = target: T1, EGFR on EGFR-positive tumor cell lines; assay: flow cytometry, Colo205 cells; remark: listed apart in the source
TRAIL-R2-Fc [5] = target: T3, TRAIL-R2-Fc (human, UniProt O14763 56-210); assay: ELISA, coated DR5-Fc (3 µg/ml), anti-Flag-HRP detection
T3 construct: extracellular domain; also called DR5-Fc; DR5-Fc fusion protein; not shown: Fc-part

DcR2-Fc = target: T4, DcR2-Fc (human, UniProt Q9UBN6 56-211); assay: ELISA, coated DcR2-Fc (3 µg/ml), anti-Flag-HRP detection
T4 construct: extracellular domain; also called TRAIL-R4-Fc; not shown: Fc-part
T4 sequence (looked up): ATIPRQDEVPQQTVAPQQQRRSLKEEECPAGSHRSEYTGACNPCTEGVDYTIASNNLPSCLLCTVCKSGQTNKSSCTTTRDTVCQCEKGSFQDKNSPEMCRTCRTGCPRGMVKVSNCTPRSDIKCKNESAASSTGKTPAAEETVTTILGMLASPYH

TRAIL-R1-Fc = target: T5, TRAIL-R1-Fc (human, UniProt O00220 24-239); assay: ELISA, coated DR4-Fc (3 µg/ml), anti-Flag-HRP detection
T5 construct: extracellular domain; also called DR4-Fc; not shown: Fc-part

[6] = target: T1, EGFR on EGFR-positive tumor cell lines; assay: cell-based or functional assay
HER3-Fc = target: T6, HER3-Fc (UniProt P21860 20-643); assay: ELISA, HER3-Fc
T6 construct: not shown: Fc part

TRAIL-R2-Fc [7] = target: T3, TRAIL-R2-Fc; assay: ELISA, TRAIL-R2-Fc
Method: The new scTRAIL₃-[sequence] fusion proteins were evaluated concerning their ability to bind to their corresponding target antigen and TRAIL-R2 by ELISA as well as by IF flow cytometry using intact Colo 205 cells. Antigen binding was analyzed in ELISA using Fc fusion proteins of EGFR, HER2 and HER3.

EC50 [1]: 0.091 nM
EC50 (EGFR-Fc): 0.315 nM
EC50 [2]: 0.146 nM
B1: anti-EGFR IgG LC/HC-scTRAIL3-FAVSGAA (other)
heavy: ASDYKDDDDKGAEVQLVESGGGLVQPGGSLRLSCAASGFSLTNYGVHWVRQAPGKGLEWLGVIWSGGNTDYNTPFTSRFTISRDNSKNTLYLQMNSLRAEDTAVYYCARALTYYDYEFAYWGQGTTVTVSSASTKGPSVFPLAPSSKSTSGGTAALGCLVKDYFPEPVTVSWNSGALTSGVHTFPAVLQSSGLYSLSSVVTVPSSSLGTQTYICNVNHKPSNTKVDKKVEPKSCDKTHTCPPCPAPPVAGPSVFLFPPKPKDTLMISRTPEVTCVVVDVSHEDPEVKFNWYVDGVEVHNAKTKPREEQYNSTYRVVSVLTVLHQDWLNGKEYKCKVSNKGLPSSIEKTISKAKGQPREPQVYTLPPSRDELTKNQVSLTCLVKGFYPSDIAVEWESNGQPENNYKTTPPVLDSDGSFFLYSKLTVDKSRWQQGNVFSCSVMHEALHNHYTQKSLSLSPGKAAGNGTSNGTSEFGGAAAHITGTRGRSNTLSSPNSKNEKALGRKINSWESSRSGHSFLSNLHLRNGELVIHEKGFYYIYSQTYFRFQEEIKENTKNDKQMVQYIYKYTSYPDPILLMKSARNSCWSKDAEYGLYSIYQGGIFELKENDRIFVSVTNEHLIDMDHEASFFGAFAVSGAAAHITGTRGRSNTLSSPNSKNEKALGRKINSWESSRSGHSFLSNLHLRNGELVIHEKGFYYIYSQTYFRFQEEIKENTKNDKQMVQYIYKYTSYPDPILLMKSARNSCWSKDAEYGLYSIYQGGIFELKENDRIFVSVTNEHLIDMDHEASFFGAFAVSGAAAHITGTRGRSNTLSSPNSKNEKALGRKINSWESSRSGHSFLSNLHLRNGELVIHEKGFYYIYSQTYFRFQEEIKENTKNDKQMVQYIYKYTSYPDPILLMKSARNSCWSKDAEYGLYSIYQGGIFELKENDRIFVSVTNEHLIDMDHEASFFGAFAVS
light: DIQLTQSPSFLSASVGDRVTITCRASQSIGTNIHWYQQKPGKAPKLLIKYASESISGVPSRFSGSGSGTEFTLTISSLQPEDFATYYCQQNNNWPTTFGAGTKLEIKRTVAAPSVFIFPPSDEQLKSGTASVVCLLNNFYPREAKVQWKVDNALQSGNSQESVTEQDSKDSTYSLSSTLTLSKADYEKHKVYACEVTHQGLSSPVTKSFNRGECAAGNGTSNGTSEFGGAAAHITGTRGRSNTLSSPNSKNEKALGRKINSWESSRSGHSFLSNLHLRNGELVIHEKGFYYIYSQTYFRFQEEIKENTKNDKQMVQYIYKYTSYPDPILLMKSARNSCWSKDAEYGLYSIYQGGIFELKENDRIFVSVTNEHLIDMDHEASFFGAFAVSGAAAHITGTRGRSNTLSSPNSKNEKALGRKINSWESSRSGHSFLSNLHLRNGELVIHEKGFYYIYSQTYFRFQEEIKENTKNDKQMVQYIYKYTSYPDPILLMKSARNSCWSKDAEYGLYSIYQGGIFELKENDRIFVSVTNEHLIDMDHEASFFGAFAVSGAAAHITGTRGRSNTLSSPNSKNEKALGRKINSWESSRSGHSFLSNLHLRNGELVIHEKGFYYIYSQTYFRFQEEIKENTKNDKQMVQYIYKYTSYPDPILLMKSARNSCWSKDAEYGLYSIYQGGIFELKENDRIFVSVTNEHLIDMDHEASFFGAFAVS
notes: scTRAIL3-FAVSGAA on both light and heavy chains (tetrameric form)

EC50 [3]: 0.008 nM
EC50 [4]: 0.028 nM
EC50 [1]: 0.07 nM
EC50 (EGFR-Fc): 0.156 nM
EC50 [2]: 0.06 nM
B2: anti-EGFR IgG (antibody, V domains shown)
VH: EVQLVESGGGLVQPGGSLRLSCAASGFSLTNYGVHWVRQAPGKGLEWLGVIWSGGNTDYNTPFTSRFTISRDNSKNTLYLQMNSLRAEDTAVYYCARALTYYDYEFAYWGQGTTVTVSS
VL: DIQLTQSPSFLSASVGDRVTITCRASQSIGTNIHWYQQKPGKAPKLLIKYASESISGVPSRFSGSGSGTEFTLTISSLQPEDFATYYCQQNNNWPTTFGAGTKLEIKR
notes: EGFR-specific human IgG1 with mutated Fc domain (ADCC/CDC), kappa light chain, N-terminal FLAG tag on the heavy chain; derived from cetuximab by humanization; also called hu225 (anti-EGFR) IgG; anti-EGFR human IgG1 scaffold antibody

binding result (TRAIL-R2-Fc [5]): binds
binding result (DcR2-Fc): binds
binding result (TRAIL-R1-Fc): binds
B3: Db10-Glyco-scTRAIL3-FAVSGAA (other)
chain: LEASDYKDDDDKGAEVQLVESGGGLVQPGGSLRLSCAASGFSLTNYGVHWVRQAPGKGLEWLGVIWSGGNTDYNTPFTSRFTISRDNSKNTLYLQMNSLRAEDTAVYYCARALTYYDYEFAYWGQGTTVTVSSGGGGSGGGGSDIQLTQSPSFLSASVGDRVTITCRASQSIGTNIHWYQQKPGKAPKLLIKYASESISGVPSRFSGSGSGTEFTLTISSLQPEDFATYYCQQNNNWPTTFGAGTKLEIKRAAAGNGTSNGTSEFGGAAAHITGTRGRSNTLSSPNSKNEKALGRKINSWESSRSGHSFLSNLHLRNGELVIHEKGFYYIYSQTYFRFQEEIKENTKNDKQMVQYIYKYTSYPDPILLMKSARNSCWSKDAEYGLYSIYQGGIFELKENDRIFVSVTNEHLIDMDHEASFFGAFAVSGAAAHITGTRGRSNTLSSPNSKNEKALGRKINSWESSRSGHSFLSNLHLRNGELVIHEKGFYYIYSQTYFRFQEEIKENTKNDKQMVQYIYKYTSYPDPILLMKSARNSCWSKDAEYGLYSIYQGGIFELKENDRIFVSVTNEHLIDMDHEASFFGAFAVSGAAAHITGTRGRSNTLSSPNSKNEKALGRKINSWESSRSGHSFLSNLHLRNGELVIHEKGFYYIYSQTYFRFQEEIKENTKNDKQMVQYIYKYTSYPDPILLMKSARNSCWSKDAEYGLYSIYQGGIFELKENDRIFVSVTNEHLIDMDHEASFFGAFAVS
modifications: glycosylated connecting peptide
notes: also called Db10hu225-Glyco-scTRAIL3-FAVSGAA; Db10-glyco-scTRAIL3-FAVSGGA
EC50 of cell death induction, Colo205, with Bortezomib [6]: 0.013 nM
EC50 of cell death induction, Colo205, with Bortezomib + Cetuximab [6]: 0.066 nM
EC50 of cell death induction, HCT116, with Bortezomib [6]: 0.039 nM
EC50 of cell death induction, HCT116, with Bortezomib + Cetuximab [6]: 0.298 nM
EC50 of cell death induction, HT1080, with Bortezomib [6]: 0.0007 nM
EC50 of cell death induction, HT1080, with Bortezomib + Cetuximab [6]: 0.008 nM

EC50 (HER3-Fc): 11.6 nM
EC50 (TRAIL-R2-Fc [7]): 2.65 nM
B4: scFv3M6-EHD2-scTRAIL3-FLVGGGPQRVA (other)
chain: EVQLLESGGGLVQPGGSLRLSCAASGFTFSHYVMAWVRQAPGKGLEWVSSISSSGGWTLYADSVKGRFTISRDNSKNTLYLQMNSLRAEDTAVYYCTRGLKMATIFDYWGQGTLVTVSSGGGGSGGGGSGGGGSQSALTQPASVSGSPGQSITISCTGTSSDVGSYNVVSWYQQHPGKAPKLIIYEVSQRPSGVSNRFSGSKSGNTASLTISGLQTEDEADYYCSSYAGSSIFVIFGGGTKVTVLAAAGGSGGDFTPPTVKILQSSCDGGGHFPPTIQLLCLVSGYTPGTINITWLEDGQVMDVDLSTASTTQEGELASTQSELTLSQKHWLSDRTYTCQVTYQGHTFEDSTKKCADSNGGSGGASSGGGPQRVAAHITGTRGRSNTLSSPNSKNEKALGRKINSWESSRSGHSFLSNLHLRNGELVIHEKGFYYIYSQTYFRFQEEIKENTKNDKQMVQYIYKYTSYPDPILLMKSARNSCWSKDAEYGLYSIYQGGIFELKENDRIFVSVTNEHLIDMDHEASFFGAFLVGGGPQRVAAHITGTRGRSNTLSSPNSKNEKALGRKINSWESSRSGHSFLSNLHLRNGELVIHEKGFYYIYSQTYFRFQEEIKENTKNDKQMVQYIYKYTSYPDPILLMKSARNSCWSKDAEYGLYSIYQGGIFELKENDRIFVSVTNEHLIDMDHEASFFGAFLVGGGPQRVAAHITGTRGRSNTLSSPNSKNEKALGRKINSWESSRSGHSFLSNLHLRNGELVIHEKGFYYIYSQTYFRFQEEIKENTKNDKQMVQYIYKYTSYPDPILLMKSARNSCWSKDAEYGLYSIYQGGIFELKENDRIFVSVTNEHLIDMDHEASFFGAFLV
